In the supplement of paper PMC10126150:
± gives the standard deviation of the averaged measurements.

system: ATP; test: switch fluorescence ratio, 500 uM ATP over buffer (Cy3 cluster intensity, sum of 5 cycles each) (fold (ratio)); higher = stronger signal-on switching upon ATP binding; sequences stand for … in TCGTCGGCAGCGTCAGATGTGTATAAGAGACAGTTTTTTTTTTTTTTTTTTTTTTTTT…TC; conditions: aptamer strand: ATP DNA aptamer (quencher-CACCTGGGGGAGTATTGCGGAGGAAGG + anchor), 100 nM annealed; ATP concentration: 500 uM
Method in brief: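 Clusters with intensities outside 100-1000 RFU were excluded. The remaining Cy3-labelled switching-strand clusters on a modified Illumina MiSeq flow-cell had been annealed to 100 nM quencher-labelled ATP aptamer and imaged in selection buffer, then after 15 min with 500 uM ATP at 22 °C, for five cycles separated by NaOH stripping and re-annealing. The fluorescence ratio, averaged per switch-domain sequence, is each cluster's summed target-cycle Cy3 intensity over its summed buffer-cycle Cy3 intensity.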
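Further: ATP exposure 15 min at 22 °C before imaging.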

| Sequence | switch fluorescence ratio |
| --- | --- |
| AAAACTTCCT | 2.5 ± 0.67 |
| ATTACGTATT | 1.103 ± 0.0095 |
| GCTAGCCAAG | 1.04 ± 0.053 |
| CGGGTGCACT | 0.98 ± 0.027 |
| ACATCGGGCT | 1.02 ± 0.027 |
| ATCGACGGGG | 1.01 ± 0.01 |
| TTCGTTCTTC | 0.993 ± 0.019 |
| TGCCTAAAGT | 0.976 ± 0.016 |
| GCAAAAAATT | 1.01 ± 0.025 |
| TAAGTTTGTT | 0.997 ± 0.011 |
| CCCAGGGGA | 1.91 ± 1 |
| TGTGATGGGC | 0.989 ± 0.026 |
| TGTCGGAGGG | 0.973 ± 0.065 |
| ATCGGAAGCG | 1.03 ± 0.011 |
| TTTTAAATAG | 1.01 ± 0.024 |
| TTCACTTTGA | 1.012 ± 0.0067 |
| CGTTAGCTTT | 1.02 ± 0.026 |
| GGCGATTGCG | 0.979 ± 0.0041 |
| GATTTGTTTG | 0.985 ± 0.026 |
| GGAAGATGTT | 0.985 ± 0.014 |
| GAAGTACCTT | 1.2 ± 0.044 |
| TTATGATCAG | 0.9912 ± 0.0038 |
| ATTTTAGTTA | 1 ± 0.038 |
| ACACGTAACT | 1.359 ± 0.0099 |
| GGCAAAAACG | 1.16 ± 0.22 |
| TCTTTGATCT | 1.02 ± 0.054 |

| Sequence | switch fluorescence ratio |
| --- | --- |
| GGTTTACTG | 1.03 ± 0.035 |
| TTGAAATCTT | 1.78 ± 1 |
| TGTGGTCGGT | 1.015 ± 0.007 |
| TGTGGAAAAA | 1.011 ± 0.0081 |
| TGTATGGCTA | 1.0085 ± 0.00081 |
| CGGGTTAAGT | 1.03 ± 0.11 |
| GAGTCGCCTG | 0.991 ± 0.037 |
| AATGTGGTCT | 0.994 ± 0.021 |
| AGATGGTACT | 0.9668 ± 4.6e-05 |
| GGGCACGCTG | 1.033 ± 0.0053 |
| TGAGCAGGTT | 1.017 ± 0.0094 |
| TAAAAGGTTT | 1 ± 0.032 |
| GTGAGGGGGT | 1.06 ± 0.14 |
| TGGGGAACGG | 0.981 ± 0.031 |
| TAGTGGACTC | 1.02 ± 0.034 |
| TGGGCAATTT | 1.09 ± 0.036 |
| TTACAGGCCT | 1.05 ± 0.056 |
| CCGAGAATCG | 1.02 ± 0.036 |
| GTGGGGGAGC | 0.985 ± 0.029 |
| CCTGAAGACA | 1 ± 0.02 |
| TTGGACTAAA | 1.06 ± 0.011 |
| TTTTATGCGG | 0.974 ± 0.019 |
| TGATTTGACC | 1.03 ± 0.051 |
| CGCTTGGCTC | 1.078 ± 0.0093 |
| TTTCATACTC | 1.29 ± 0.21 |
| AGGGGATTC | 1.002 ± 0.0075 |

| Sequence | switch fluorescence ratio |
| --- | --- |
| CGGTTTCCGC | 1.04 ± 0.022 |
| TAAAAAGTTT | 0.997 ± 0.03 |
| TTGAGCATAG | 1.43 ± 0.44 |
| TATTGAGTTA | 1.01 ± 0.033 |
| TTTAATAAGT | 0.9981 ± 0.0036 |
| TAAGCTGGCT | 1.025 ± 0.0092 |
| GTTTTGATCA | 1 ± 0.016 |
| AGGGCATTCT | 0.9837 ± 0.0017 |
| TGTTTAAATT | 0.983 ± 0.013 |
| CAGGTTTAGT | 0.9682 ± 0.0043 |
| GAGGAAGTCG | 0.9961 ± 0.0055 |
| TAAGGTGTGA | 1.02 ± 0.038 |
| CGTGTTTATA | 0.99 ± 0.042 |
| ACACGGGAAG | 1.02 ± 0.011 |
| TGGGGTCGTG | 0.964 ± 0.022 |
| GGTGCGCCTT | 0.958 ± 0.013 |
| AACTTTAGTA | 1 ± 0.016 |
| AGAAATTGTT | 0.999 ± 0.047 |
| GCGAGTTTGC | 1.02 ± 0.017 |
| GGCTTGCGGT | 0.9974 ± 0.004 |
| GCTGGGGGGA | 0.981 ± 0.033 |
| TTCTTTGGAC | 1.0597 ± 0.0003 |
| CCTTCCGGGG | 2.07 ± 0.23 |
| ACAGTTATTG | 1.016 ± 0.0077 |
| AGCAGACTGG | 0.988 ± 0.0033 |
| TTATTCTTTC | 1.01 ± 0.046 |

| Sequence | switch fluorescence ratio |
| --- | --- |
| TGTGAAAGAC | 1.044 ± 0.003 |
| ATGCGGGTTC | 1.01 ± 0.012 |
| GGTTAAGTCT | 0.946 ± 0.053 |
| ACGGGTGGGA | 1.005 ± 0.0036 |
| GCTTTAGGAT | 1.01 ± 0.04 |
| TGAAATAAG | 0.979 ± 0.026 |
| TGTTAATTGG | 1.02 ± 0.043 |
| TACGGGAGGG | 1.07 ± 0.022 |
| TGTATAATTG | 0.993 ± 0.017 |
| ACCGGTTATT | 1 ± 0.013 |
| ACCGGTTTCT | 0.997 ± 0.037 |
| TAGGTTCTTT | 0.995 ± 0.022 |
| GATTTAAAGG | 1.04 ± 0.025 |
| TGCGTATATG | 1.005 ± 0.0085 |
| GTGGGGGGTG | 1.02 ± 0.057 |
| GTTTTAGTGG | 0.9867 ± 0.0089 |
| AAAGGGGGAG | 0.997 ± 0.011 |
| AAACCCGCCC | 1.8128 ± 0.00028 |
| CCGCCTTGGG | 1.09 ± 0.029 |
| ATTAACTGAA | 1.04 ± 0.012 |
| TCTATTGGTG | 1.02 ± 0.069 |
| GCTTCAGGTC | 1.05 ± 0.074 |
| AACCTTTCTG | 1.5 ± 0.021 |
| TAGTAATCGA | 1.02 ± 0.018 |
| TGAGAGGTTT | 0.9817 ± 0.0014 |
| CAGGGACGGA | 1.02 ± 0.017 |

| Sequence | switch fluorescence ratio |
| --- | --- |
| AAGTGGATCT | 0.988 ± 0.078 |
| GTAATGTGGG | 0.972 ± 0.022 |
| TTTGTGGGC | 0.981 ± 0.028 |
| GGGCTTAAAA | 0.98424 ± 0.00098 |
| CAATATGCCG | 0.968 ± 0.026 |
| AAAGCGAAGG | 1.01 ± 0.044 |
| ACAATGGCAC | 1.06 ± 0.029 |
| CATAGGATCG | 0.949 ± 0.038 |
| TTTTTTAACG | 0.9973 ± 0.0053 |
| AAACATATAT | 1.018 ± 0.0098 |
| TGAAGGTAAA | 1.02 ± 0.042 |
| GACATAAAAA | 0.986 ± 0.076 |
| AGGTCCGGTA | 1.01 ± 0.011 |
| GGGTAGGCGT | 0.999 ± 0.062 |
| CCGTTGGGTG | 1.12 ± 0.071 |
| TTTATGCCAT | 0.989 ± 0.012 |
| TTGATATATA | 0.974 ± 0.018 |
| CCCGTCAGCG | 1.02 ± 0.041 |
| GCCAAATTTT | 0.955 ± 0.035 |
| ACGTTAATGC | 2.09 ± 0.21 |
| CGCGGTATTA | 1.02 ± 0.013 |
| AGTGAAAGTT | 1 ± 0.012 |
| TATCTACTGG | 1.0076 ± 0.00035 |
| TAGAGTGGGC | 0.991 ± 0.013 |
| GGGCCCTAAT | 0.982 ± 0.03 |
| CTGAGCTTCG | 1 ± 0.0032 |

| Sequence | switch fluorescence ratio |
| --- | --- |
| GAGAGCTGCG | 1 ± 0.039 |
| AACTTATGTC | 0.9738 ± 0.0069 |
| AGCATTTAGG | 1.02 ± 0.035 |
| AAGGTAGGCC | 0.96 ± 0.016 |
| CAAGTGAGGG | 1.04 ± 0.015 |
| GAGAGAGGGG | 0.984 ± 0.026 |
| ACGCTCGACC | 1.75 ± 0.15 |
| CAAAGGCGGA | 0.991 ± 0.014 |
| TTTAAGCCGG | 1.01 ± 0.032 |
| AATGGGCGCT | 0.97198 ± 0.00095 |
| ATTCATTTTG | 1.019 ± 0.0048 |
| GACTGAGGTA | 0.99 ± 0.031 |
| TTGTACTTAC | 1.24 ± 0.048 |
| GACGTATTGC | 1.27 ± 0.061 |
| GTATTCAGGT | 0.9921 ± 0.0035 |
| TCAGCGAATT | 0.98 ± 0.015 |
| GCTTCTGGGT | 0.996 ± 0.017 |
| GGGATATGAT | 0.9829 ± 0.0029 |
| CGTTCTTGTC | 1.05 ± 0.047 |
| CTGACCTGTA | 1.093 ± 0.0021 |
| AGAGGTATCT | 0.9872 ± 0.0046 |
| GGCTTTACGG | 1.012 ± 0.0081 |
| GTGCAATAGT | 3.71 ± 0.63 |
